# PMC6911170
# T1: GST-Zc3h10 full length (UniProt Q8R205 1-435)
# T1 sequence: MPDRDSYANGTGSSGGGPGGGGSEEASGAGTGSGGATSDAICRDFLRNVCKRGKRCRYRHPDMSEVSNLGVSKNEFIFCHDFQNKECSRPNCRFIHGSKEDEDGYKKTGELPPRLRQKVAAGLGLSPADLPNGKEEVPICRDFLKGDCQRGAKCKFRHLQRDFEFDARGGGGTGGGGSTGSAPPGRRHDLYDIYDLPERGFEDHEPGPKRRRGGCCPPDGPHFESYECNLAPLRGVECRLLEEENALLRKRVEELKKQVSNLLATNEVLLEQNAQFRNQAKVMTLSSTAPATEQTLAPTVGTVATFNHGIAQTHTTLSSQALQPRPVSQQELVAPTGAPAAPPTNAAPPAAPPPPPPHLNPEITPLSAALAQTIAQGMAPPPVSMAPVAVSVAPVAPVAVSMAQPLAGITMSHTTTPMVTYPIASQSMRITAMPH
# B1: -4.6 kb UCP1 probe (dsDNA)
# DNA 1: TTTACCAAGTCCTTTCCACCGTGCAGGACGCACCATTCGGCAGCTTCCAGTTGTCTGGGAACTTCCAGTTGAAGGGATGA
# DNA 2: TCATCCCTTCAACTGGAAGTTCCCAGACAACTGGAAGCTGCCGAATGGTGCGTCCTGCACGGTGGAAAGGACTTGGTAAA
# Molecular target: T1, GST-Zc3h10 full length
# Experiment: EMSA
binder,measurement,value
B1,binding result,binds
